Measurements as given in patent publication US20180305695, “DNA APTAMER THAT BINDS TO vWF” (TAGCYX BIOTECHNOLOGIES, published 2018).

Biological target: von Willebrand factor A1 domain (Homo sapiens, UniProt P04275 SEQ:1277-1453)
Test: EMSA; positive control, gel 4 C; substantially no binding with gel at 25-37 C
Details: tags: U-Protein Express V003; label: biotin (SPR)
Description: The binding ability of the synthesized DNA aptamers was analyzed via gel shift assay. Specifically, the DNA aptamers (100 nM) and the vWF A1 domain (100 nM, V003, U-Protein) were suspended in 20 μl of a reaction solution (1×PBS, 0.005% Nonidet P-40), and incubated at 37° C. for 30 minutes. Thereafter, 25% glycerol containing bromophenol blue was added to be a final concentration of glycerol to 5% therein, the resultant was subjected to 8% nondenaturing polyacrylamide gel electrophoresis at 4° C., and the DNA aptamers bound to the vWF A1 domain were separated from the free DNA aptamers. Thereafter, the DNA aptamers were stained with SYBR Gold (Thermo Fisher Scientific) diluted 1/20,000-fold with the 1×TBE solution and detected by a bioimage analyzer (LAS-4000, Fujifilm Corporation). The percentage of gel shifting was determined by dividing the amount of the complex by the amount of the free form and the complex, each deduced based on a band and expressing the determined value in a percentage figure.
Gel shift assay was carried out in the same manner as in Example 3, except that electrophoresis was carried out at 4° C. and 300 V, 25° C. and 40 W, and 37° C. and 40 W.
And the activity of vWF2-DsAA (o) and vWF2-AADs (p) were decreased in comparison with vWF2-DsDsDs (m).

Binder: GGCGTGCAGTGCCTTCGGCCGTGCGGTGCCTCCGTCACGCC (ssDNA) [ARC1172]
- binding result: binds
